Results published in patent US20220194999A1 (published 2022).

T1: PIK3CA G118D, mimic peptide PIK3CA_G118D5 peptide on HLA-A*02:01 (human)
T1 peptide: ILNREIDFV

T2: PIK3CA G118D peptide on HLA-A*02:01 (human)
T2 peptide: ILNREIDFA

T3: TP53 C141Y, mimic peptide TP53_C141Y8 peptide on HLA-A*02:01 (human)
T3 peptide: KMYPVQLWL

T4: TP53 C141Y peptide on HLA-A*02:01 (human)
T4 peptide: KTYPVQLWV

B1: TCR of SEQ ID NOs 120 and 114 (TCR)
alpha TRAV12-2*01 TRAJ15*01 CDR3: CAGLIGTALIF
beta TRBV12-3*01 TRBJ1-2*01 CDR3: CASSFSTCSANYGYTF
B2: TCR of SEQ ID NOs 210 and 114 (TCR)
alpha TRAV8-4*01 TRAJ8*01 CDR3: CAVSDEDTGFQKLVF
beta TRBV12-3*01 TRBJ1-2*01 CDR3: CASSFSTCSANYGYTF

What was measured:
Test in all cases: multimer staining
[1] = target: T1, PIK3CA G118D, mimic peptide …
[2] = target: T2, PIK3CA G118D peptide on HLA-A*02:01
[3] = target: T3, TP53 C141Y, mimic peptide TP53_C141Y8 …
[4] = target: T4, TP53 C141Y peptide on HLA-A*02:01

Row | Binder | binding result [1] | binding result [2] | binding result [3] | binding result [4]
1 | B1 | recognises | recognises |  | 
2 | B2 |  |  | recognises | recognises
